Source: publication PMC9445010

Legend:
[1] = molecular target: pMMO monomer consisting of PmoA, PmoB, and PmoC (Methylococcus capsulatus (Bath) (endogenous in M. capsulatus (Bath))) (UniProt Q607G3); experiment: cryo-EM structure; cryoET with subtomogram averaging of isolated M. capsulatus (Bath) membranes, no detergent; 25 mM PIPES pH 7.3, 250 mM NaCl; single trimer 4.8 Å, 7-particle unit 10 Å, three trimers 12 Å; 3-fold symmetry applied
[2] = molecular target: particulate methane monooxygenase (pMMO) trimer (Methylococcus capsulatus (Bath) (endogenous in M. capsulatus (Bath))) (UniProt Q607G3)

stoichiometry N [1] | methane oxidation activity of SEC fractions with larger pMMO nanodisc arrays against single particle nanodiscs (13C-methanol by GC/MS, duroquinol reductant, 45 °C) [2] [fold] | Substance
3 |  | pMMO monomer consisting of PmoA, PmoB, and PmoC (from UniProt Q607G3 1-247; G1UBD1 33-414) (complex)
 | < 3 | particulate methane monooxygenase (pMMO) trimer (from UniProt Q607G3 1-247; G1UBD1 33-414) (complex)
